In article doi:10.1101/2023.09.14.557733:

Target: FgSte2-yellow fluorescent protein (F. graminearum)
Test: FRET or BRET

Substance: FgSte3-Nano luciferase (receptor)
- BRET50 (galactose concentration for donor induction): 2 % galactose
- mBRET: 110 mBRET
- netBRET: > 0.1 netBRET
